Results reported in patent US20210386836.

T1: β-casein
T1 sequence (P02666 16-224, species assumed, looked up): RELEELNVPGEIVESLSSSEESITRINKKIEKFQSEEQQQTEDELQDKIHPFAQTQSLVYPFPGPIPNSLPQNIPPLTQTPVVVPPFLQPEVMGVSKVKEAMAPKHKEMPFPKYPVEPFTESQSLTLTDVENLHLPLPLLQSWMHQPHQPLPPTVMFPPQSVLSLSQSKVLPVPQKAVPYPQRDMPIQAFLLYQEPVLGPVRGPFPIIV

T2: C2, P06681
T2 chain: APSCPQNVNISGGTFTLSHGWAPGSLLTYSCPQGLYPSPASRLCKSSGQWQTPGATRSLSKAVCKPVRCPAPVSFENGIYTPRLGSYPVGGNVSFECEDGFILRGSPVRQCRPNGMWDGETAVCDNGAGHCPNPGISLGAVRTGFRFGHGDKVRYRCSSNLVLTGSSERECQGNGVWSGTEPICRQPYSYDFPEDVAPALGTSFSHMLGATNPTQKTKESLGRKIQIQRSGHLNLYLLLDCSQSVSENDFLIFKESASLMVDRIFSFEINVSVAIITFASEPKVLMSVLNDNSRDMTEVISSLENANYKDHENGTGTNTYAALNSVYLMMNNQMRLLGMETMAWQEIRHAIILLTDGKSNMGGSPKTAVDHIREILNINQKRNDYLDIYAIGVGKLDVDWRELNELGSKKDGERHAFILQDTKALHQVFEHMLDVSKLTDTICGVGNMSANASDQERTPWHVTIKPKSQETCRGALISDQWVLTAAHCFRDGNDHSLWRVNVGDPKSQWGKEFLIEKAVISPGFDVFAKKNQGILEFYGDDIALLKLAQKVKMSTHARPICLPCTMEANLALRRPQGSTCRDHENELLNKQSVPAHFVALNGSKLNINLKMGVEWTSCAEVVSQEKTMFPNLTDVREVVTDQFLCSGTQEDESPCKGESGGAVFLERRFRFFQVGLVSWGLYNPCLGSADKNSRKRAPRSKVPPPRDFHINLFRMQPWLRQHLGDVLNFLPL

T3: C-Reactive protein, P02741
T3 chain: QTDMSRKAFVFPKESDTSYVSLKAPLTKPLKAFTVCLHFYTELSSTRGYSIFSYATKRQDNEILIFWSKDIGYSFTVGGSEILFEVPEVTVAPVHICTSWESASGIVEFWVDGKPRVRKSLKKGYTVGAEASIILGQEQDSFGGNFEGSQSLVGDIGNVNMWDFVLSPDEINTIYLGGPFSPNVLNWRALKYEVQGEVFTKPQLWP

T4: C1 inhibitor, P05155
T4 chain: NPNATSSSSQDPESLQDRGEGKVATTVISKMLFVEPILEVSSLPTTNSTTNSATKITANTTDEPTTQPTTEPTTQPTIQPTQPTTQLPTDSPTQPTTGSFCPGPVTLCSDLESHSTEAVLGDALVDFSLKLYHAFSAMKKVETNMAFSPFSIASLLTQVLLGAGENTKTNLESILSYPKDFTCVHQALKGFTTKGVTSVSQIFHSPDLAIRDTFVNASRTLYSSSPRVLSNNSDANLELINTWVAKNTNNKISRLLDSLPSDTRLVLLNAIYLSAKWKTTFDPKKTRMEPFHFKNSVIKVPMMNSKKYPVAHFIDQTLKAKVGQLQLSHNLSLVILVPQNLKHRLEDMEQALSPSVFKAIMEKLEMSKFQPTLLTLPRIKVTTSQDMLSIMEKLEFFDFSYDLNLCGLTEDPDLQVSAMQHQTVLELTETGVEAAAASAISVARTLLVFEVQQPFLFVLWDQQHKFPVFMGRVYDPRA

T5: Factor H, P08603
T5 chain: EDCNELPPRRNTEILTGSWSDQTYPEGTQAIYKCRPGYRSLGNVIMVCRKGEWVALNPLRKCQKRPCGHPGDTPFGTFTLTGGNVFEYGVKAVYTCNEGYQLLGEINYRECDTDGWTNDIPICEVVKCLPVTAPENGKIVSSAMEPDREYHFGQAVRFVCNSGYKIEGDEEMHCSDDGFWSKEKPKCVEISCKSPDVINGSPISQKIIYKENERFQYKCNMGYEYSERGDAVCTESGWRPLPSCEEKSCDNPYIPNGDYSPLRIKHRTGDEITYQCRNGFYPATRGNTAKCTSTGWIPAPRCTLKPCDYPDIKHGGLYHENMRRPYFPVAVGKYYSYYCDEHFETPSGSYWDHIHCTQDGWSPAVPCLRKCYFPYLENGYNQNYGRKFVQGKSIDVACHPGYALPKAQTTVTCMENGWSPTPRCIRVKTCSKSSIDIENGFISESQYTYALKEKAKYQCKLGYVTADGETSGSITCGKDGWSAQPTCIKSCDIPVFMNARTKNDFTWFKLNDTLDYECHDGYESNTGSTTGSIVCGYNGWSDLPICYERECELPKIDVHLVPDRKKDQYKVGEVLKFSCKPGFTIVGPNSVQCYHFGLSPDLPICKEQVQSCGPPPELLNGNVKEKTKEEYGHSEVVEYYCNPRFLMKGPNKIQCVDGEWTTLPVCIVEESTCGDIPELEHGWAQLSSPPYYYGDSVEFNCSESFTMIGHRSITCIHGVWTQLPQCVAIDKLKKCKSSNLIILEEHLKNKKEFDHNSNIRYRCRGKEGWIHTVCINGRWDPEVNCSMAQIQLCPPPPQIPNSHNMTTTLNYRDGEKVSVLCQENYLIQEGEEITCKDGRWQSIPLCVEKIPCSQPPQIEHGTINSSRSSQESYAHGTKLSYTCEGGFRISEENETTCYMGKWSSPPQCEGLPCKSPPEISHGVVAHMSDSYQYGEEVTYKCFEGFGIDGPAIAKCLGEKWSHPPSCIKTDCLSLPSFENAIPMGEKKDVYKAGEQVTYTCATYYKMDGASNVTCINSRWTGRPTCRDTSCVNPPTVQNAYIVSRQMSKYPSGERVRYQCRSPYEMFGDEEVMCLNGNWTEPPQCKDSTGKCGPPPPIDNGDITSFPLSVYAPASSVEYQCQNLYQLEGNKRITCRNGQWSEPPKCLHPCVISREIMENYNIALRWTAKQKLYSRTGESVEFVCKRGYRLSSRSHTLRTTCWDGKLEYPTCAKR


What was measured:
β-casein = target: T1, β-casein
C2, P06681 = target: T2, C2, P06681
[1] = target: T3, C-Reactive protein, P02741
C1 inhibitor, P05155 = target: T4, C1 inhibitor, P05155
Factor H, P08603 = target: T5, Factor H, P08603

Protein	digestion (SDS-PAGE) (fibrinogen)	proteolytic activity (SDS-PAGE) (C3, P01024)	casein activity assay (SDS-PAGE) (β-casein)	digestion (SDS-PAGE) (lysozyme)	proteolytic activity (SDS-PAGE) (C2, P06681)	proteolytic activity (SDS-PAGE) [1]	casein activity assay (SDS-PAGE) (κ-casein)	protein cleavage assay (SDS-PAGE) (IL-3)	proteolytic activity (SDS-PAGE) (C1 inhibitor, P05155)	proteolytic activity (SDS-PAGE) (Factor H, P08603)	digestion (SDS-PAGE) (Factor XI)	digestion (SDS-PAGE) (HSA, P02768)
PrtV(Pro-B) (protein) DTVNGSESVKTEATQASGSSVQDNATAKTTVTTNSNSSNNVSNVQTDTVKEAATSNVDSVASQNQATTAQQAKTTADTADQTVPPTTYKDHVKGNVQTAWDNGYKGQGMVVAVIDSGADTNHKDFSKAPESPAISKEDADKKISELGYGKYASEKFPFVYNYASRDNNWVKDDGPDASEHGQHVAGIIGADGQPNGNERYAVGVAPETQLMMMRVFNDQFADENTDDIAQAIYDAVKLGANVIQMSLGQGVAAANLNDVEQKAVEYATQHGVFVSISASNNGNSASVTGEEVPYKPGGADGNFEPFSSSTVANPGASRNAMTVAAENSVVGAGDDMADFSSWGPLQDFTLKPDVSAPGVSVTSTGNDNRYNTMSGTSMAGPFNAGVAALVMQRLKATTNLNGADLVQATKALIMNTAKPMTQQGYDTPVSPRRQGAGEIDAGAATESPVYVVAADGTSSVSLRKVGDSTQFALTFKNLSDKDQTYTFDDFGGGLTEVRDADTGTFHDVYLAGAHVYGNKTVTVKAGQSATYNFTLSLTGLKENQLVEGWLRFVGNDGQNQLVVPYLAYYGDMTSEDVFDKAANQEGTVYGGNYFVNEDNYPRGVADEDSLKALVNLEGNYNWQQVAKLYQDGKVAFSPNADGKSDLLKPYAFVKQNLKDLKVEVLDKSGKVVRVVADEQGLDKSYYESGVNKDVTLSVSMRNNPNTLAWDGKVYDDKAGEMVNAADGEYTYRYVATLYNDGVNKVQTADYPVVIDTTAPVLSNVKYDAATHTLSFDYKDTGSGFTDYSYAVVKVNDKTFGYKLNDGKNSKFLDAAKTSGTFKAVLGSDTLAALTAAKNALSVAVSDVADNTSTVTLLVNGNNDATTKVSVWNATNGLELDQSSPDYQAATSTYNLRGNATSDFYYNGALVQVDNSGNFVVPVSTSDTAVVFTSDAAGKNVVYKLNTATPKAVFAWQVNNTVKENFGIVLDTVVSNNKDDVVVQAAVTKGDNVEAYARDYFTGAVYKADVKDGLATFHVKVTNNSGRTVLLGWTEVVGPTFNDVQRTSANGVYLGVDTDTENPTPAPAFTSADQLGTNVVQEKADSATIGNPGDLPGHSLKDLTTRADANPDIHFDYLKDNDYNWVGAQAVKDGVYNPSTQVFTLTGKVDPNVKSLVVLGDSYNEDDPVNKVNLNSDGTFSFQFHTAPTSQRPVAYIYTKDDGSTTRGTMELILDTVLPTLSLNNVANLQLDSNGDYQVYTNNKDFSVSGEATDNLDGYRFFFNGDNDYREFHNSGVNFVAEAHQDGSTVTNPYPAYKFSKTFNLADATGETTHVYTLSVVDLTGNTVTRKFYVHY	did not digest	None of the complement proteins tested show evidence of breakdown	cleaving only α-casein in a limited manner	did not digest	None of the complement proteins tested show evidence of breakdown	None of the complement proteins tested show evidence of breakdown	cleaving only α-casein in a limited manner	has activities against	None of the complement proteins tested show evidence of breakdown	None of the complement proteins tested show evidence of breakdown	–	–
PrtI(ProB) (protein, not fully specified; X: residue not identified in the source) AIGETSVQNVKVSVAKNESDSQKFNNSQNLEQKTPQAAAANQNGSQVQNDHTETQLQNQQTTQSQVTQAHTEENNASSIPEPANQADHVKGNVQSAWDQGYKGQNTVVAVIDSGADTSHKDFQTMPSNPKLKQEDVQSKIDQQGYGKYVNEKFPYVYNYADRDNDYIKSDDNNQXNDSPHGQHVSGIIAADGHPEGDQQYVVGVAPEAQLMQLRVFGQFSDEKTDDVARAIYDATNLGADVIQMSLGQGVADQQLTNIEQKAVQYAIDHGVFVSISASNNGNSASVDNPSKVTAKGYGSGSEAGNYEPLNSGTVANPGASKNALTVAAETSGTGKDSDMASFSSWGPLSDFSLKPDLSAPGYQVVSTVNDNQYQTMSGTSMAGPFAAGSAALVIQRLKQTNPELKGAELVAATKALLMNSAKVQTQNGYTTPVSPRRQGAGQIDVGAATANPVYVTAADGTSSLSLRQVDEKTTFTLTFHNLTDQEQSYSFNDLGGGYTEQRDPDSGVFHEVQLAGAHVNGVGNFTLAPKEVKDLQYTLDLQGLNKNQPVEGWLHFTNDKDKSTVVVPYLAYYGDLTSENVFDQNANEEKPDIQGNRFVNENNYPLGVTDQESLKQLVNVDSDYNWQEVAKLYESGKVAFSPNDDHQSDLIKPYAYLKQNVKDLKVEILDAKGNVVRVVSDVQGVDKSYDESGVTKDASLSVSMRDNPDAFEWDGKVYDTKTGQMVTAPDGQYTYRFVATLWNEGPNQKQTADFPVVVDTQAPSLSVKYDSATHTLSGNYEDKGAGFTDYSYVTVQVNDKVFGYKLNEGESGFDNSEKTKGHFNFTLSSDALDALSGSLNKVSVTLSDVANNTTVKTVDVPAVKDQPAVSVWNATEGVEFNKNSKDYNKENDTYTLYGSAAQDFYLNGALVQVRDGKYEVPVKTTTQDLVFSTDQAGKNVLKSFTTFTPKAFFNWQNVDGFDGNFGVNIYSVKTNDPNNAVVQAAVPLGKNVKAYAQDYFTGEVYKGQVENGVATFHVHTSINQGEDGIFKRALLTGWSEVDGPAYNDKQVTSKAGVASSNHLGVYYTTDKVNRKVYTDRADLGVDVQDEAADLSSFGPTAYPGHALADLTTRTDPNPAIHFDYLNDNDTTRFGQNAVTDGYYDSVTKKFTVTGHVDPEVKSLTVLGDSSDENAPQNQVKLGKDGKFSFSFTTENVGQRPVAYIYTDQNGQKVRGTLNVVLDTVAPTLNVDQVNGNELEVKTNNPLFKLSGVVNDNLDGYRLYVNGNNIYREFLNSGYNKLAGLNTDGTDVNPYGPHNFEESFNLNDDNNQPTTHVFTIYVVDQVGNKVEKKIAVNYDPDYVA	–	None of the complement proteins tested show evidence of breakdown	–	–	None of the complement proteins tested show evidence of breakdown	None of the complement proteins tested show evidence of breakdown	–	has activities against	None of the complement proteins tested show evidence of breakdown	None of the complement proteins tested show evidence of breakdown	did not digest	did not digest
